Reference: the domain aggregation screens of Martell et al. (2025)

Assay: soluble fraction after stress (log2 fold change); higher = more stays soluble; pooled small domains, quantitative proteomics
Conditions: stress: 50 degC
How it was run: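 After stress at 50°C, the amount of each protein still soluble was measured. This was done on pooled custom libraries of small protein domains, using high-throughput quantitative proteomics. The figure given is a base-two log fold change and stands for aggregation propensity, with higher values meaning more protein stays in solution.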

Row | Sequence | soluble fraction (log2)
1 | HMDDLIIQIELKQEGLEITGLKVLLKEDSVIDEQVKQTIRRKIERFLVNLYGNPNVYVSKFSMGI | -0.325
2 | HMGLAALLQSGPVAGTVLSHQPGGKVVIAFQGQAYPLNLKGRTLQPGQSVLARMAGEQISLEVI | -0.289
3 | HMQNEVMPYSTFLSEVNSGNVTKVKIDHEQLTGTLKSGKQFTTYILDAATLPSIVAEKGVEVEVVPP | 0.357
4 | HMYSYSFTSSEGSTFEGQLIRVEESQVTILRYADQKEFSIPKSRFIEADQVYFERWAIENPQL | -4.33
5 | HMSEKAQSENEDLIKILALLIHAAKIDENYSEKEKKLIISFAEMSSNKKLDREQINSLVDKAEQYEK | -0.17
6 | HMTVSGNIAGDYKDYLPQKTDVINGMTVTYRMVDDAVYLASWKHAGQNHVFLFNDPVSVERAREMI | -0.577
7 | HMDMAENEEYKVIMGQAQQLAEQFFPADDNTRRIMLGQLKLENYSLYLLTKQILDEATKGQAAAAN | 0.0229
8 | HMDEKPPHEALSNREFQVLQLLAQGRSVGQIAQQLTLSANTISTYRARIFDKLGLHNPADLFSYAARHRLT | -0.273
9 | HMDYENGTVKWFNTKKGYGFITRENGEDLFVHFRNIKGRGRRSLNDGEPVTFVVIEGDKGLQADQVSA | -0.025
10 | HMDRMIPPYGLEVTYDKTTHIIFPSAVRYVDLGSPNLIAGKADGSENVIRVKATRKNFREETNMSVITE | -0.043
11 | HMLQMSDSSALEAILDEVLGSEMGQKALSDIEAGNMKAMGFIIGQSMKLSKGQANPQIINKLLQQRLK | -0.000287
12 | HMLQSGSDYLIEQVRMYTATGQREYMDNYFEELNTTRRRENALEYFAEHYGDNDAFTLLKSAMTTSQN | -0.428
13 | HMAKRMRNPNGYGSIVKLSGNRRNPYMVKVNTHMDERYYPVYDILGYYPTWADASIALAKYNDDPYNVS | -0.453
14 | HMTREAILDTAEELLQRRGYNAFSYHHIAVQLGIRNAAIHYHFPAKEDLGIELVSRFRIRLAE | -0.146
15 | HMKDSIQIPNVVGMTIKDAQSQYGKSFSIIEQNRTESTKPAGTILEQTPAGGDTVSKRDNIIIRVVVSLG | 0.132
16 | HMAPVVELEDVTIVRGKATLLDRVNWVIDETDRWVIVGPNGAGKTTLLQVVSANLHPTSGKAMILDEVL | 0.023
17 | HMKYSNDFDKVSYSLGLSIASNLISSGVKTLNAEAFNDGLATVFEGRMPEINPDEANKILQNFFEGLQKE | 0.0191
18 | HMGETDDDFRELEEFVEKTKFDKLGTFMYSKEEGTPAARLPEQIHGNTKKSRYNKIMSIQQKVSNEN | -0.0112
19 | HMLKLEPYTINEINSLQELYDLGNVRALETLISIYKDKNQVYDTRFYVLDILSKYDNPLIQEALEESITN | -1.78
20 | HMGNKWALLVVFILNENGSTRFNQLARQIPDISTKVLSNTLQILEADGLVKRTVFPEVPIRVEYELTATGK | -3.64
21 | HMATETELNLQLMRIIDELHTDHNTWGSRKITDYLRLQGYEINRKRIQRLMDVMDIQVVYPK | -1.98
22 | HMLKLYILTDGKNYVMDDPIHPGRVMYSTSPVNAKKFTFKQARALLNNKSKKLSWIRSFNMVDDSSGEKI | -0.692
23 | HMSPLTPEEAEVLRILGDHGDMTVDNIATEGKMSAAAVLRVLGVLSAYGLAVPSGPGRWGSRAA | -0.24
24 | HMFDREKFIKLGQEFARVAFENVNKRATDRALKTAAKHYGLPSADELLARLGSSEIAARDVVAELYPNL | -0.34
25 | HMGDPMAIMQLSSNTTPEYWEAYQKYHIQEYEQSNFIRYVNGISVLDDDFVDKVLITIDQHGRIFSELKS | -2.41

Row | Sequence | soluble fraction (log2)
26 | HMKRTFGEISPLPSGRYRARYRGPDGERYPAPVTFLSRMDAETWLSAQARKVSSGDWTPPVGVVA | -0.16
27 | HMNVWESVDLRQEQHEAKRRLILKQAALLFADRGFHETTIDQIAEALNVTKPTIYYYIESKEDLLYQVA | -0.0821
28 | HMEALQKVSINYYDEGAGKQIAEVPLEVGAGDTEIALAVINKYMPAEYNLVSTDYQIRGGYVYVSVTPA | -0.072
29 | HMTEFWTGPITTVTKANFADWTLDTNQDRITANVWLTRADSKGLFNITPGKETAFDIVDYLSPLDTEWA | -0.188
30 | HMNAPKKPLSAYFLFSQEERLKVKAENPDYSITEVAKELGKRWATLNPDIKTVYEQRYQDARRIYETEMNT | -0.303
31 | HMDTVSYMSDAVKAGAVTPSHDEEARARYLLYAGFGAILLFLRYEASEPGDIESAIREFMERYGPVTAELY | 0.243
32 | HMIPLKTEAIPVSYGDGAAIIRSLAVAFPSRTFHWDAQTRRIIGQALDEEWQVIRSLVWQLDIP | -0.584
33 | HMSIVVPDLRGKTLEEARAILKEADLDFEINDSTFSKTARPGTIRDVVPSPGSRVKAGRILFISINGF | -0.519
34 | HMHAGMKSWTIQYEKSPIYGSFLMYKDGNIYIQKEDNVVVHFPLDRFSQNDQAILKSRIEKIDQINKSS | -0.0347
35 | HMPRQREVPDVSGWTEQHAKVYLEALGYRVKVIYLEVSSFDKGLVQETSPAKGSKVEEGDTIDLRVSNQE | -0.367
36 | HMYVEVPNFIGVPLVKVQSELASLGLVFNKSVVYQTSPYLKGNILDQRPLPGEVVPLNTEMSFTVSSGPA | 0.453
37 | HMTPLFNQGEVLKGFVLQTGTNNRVLLQIGTAKVLADAQTPLKAGEQLTLRVEATGPRTVLQILG | 0.553
38 | HMAEPIEKIIIEGNQRIEALTIQSYLLLRVGEPFNRQLMNQTLKSLYATGYFSDVAVTRVSSSLLVK | 0.133
39 | HMKMSVEEVNLSPRTTNALINNDIKTMKDLVALTDTELRDLKGFGSKAYEEVKEKLSELGLSTQ | 0.227
40 | HMRREKVLIKLAENLASKVLRTKKSIELEPMTPYERKVIHTTIENISGVKSWSEGENLQRHLIVALDE | -1.3
41 | HMDSADADLLRRIEDLLSSRRSVIREARLADMLGVPRDQVARALDLLQERGVIGLTTDSGMKRIAFRRN | -0.0756
42 | HMEYFDDEELDRYKGRTSDSFTDDEAEEFREVMMTMHPEEVKAWNRSLILRDVAMPDQIKDDYIMLAG | -0.0408
43 | HMHPELSDSQRTLIALMASGLKDEAIAVEMGVGARTVRRKVQELYELLGVRTRFQAGVAANQRGW | -1.79
44 | HMNREEKKALTRRQIIDVATRLFRQHGIHNTDLKTIATEAGVSVVTFYKYFDSKEALIGTIAAEQ | -0.281
45 | HMVAGQDPVKRQQILDGAKRVFLGVGFDAASMNDITREAGVSKGTIYVYFGSKEELFGALIDR | -0.663
46 | HMGTTTGKVNATGVNFRTGPSTSYSSMGKLGIDTAVTILGKSGDWYQVKVNSTGKTGYVFAKYITITSVV | -0.0946
47 | HMDESLLDYALREIKARIQNGTYPPGTKLSTQEISDSLGISRTPVVAAINRLVAQGVAEAIPRRGTIVAR | 0.0188
48 | HMGTQKVQVVNGPINVRSGPGPTFEKIGMVEDQAVYQVVSKKDDWFQISLPGNKTAWVAGWLVKEIK | 0.0417
49 | HMFNRAVSDNEALQVREHFDRDATVMSLAKKYGVSTVTIQRILLGKTYRNVGGPLFDKATLKKRMGN | -0.66
50 | HMEFDYIVKVPDVRNKKIEDAGKILIDLGLKYTTESDYITQDLKVIDQFPLPGTEVSKGSIIDIYLEEDFK | 0.0944

Row | Sequence | soluble fraction (log2)
51 | HMNPGQIIRKLRQDQGMTLAVLAKYANLDPGNLSRIERDDLNISFNLLEKLSLILNVSPIVFFH | -0.154
52 | HMAREFPGTIIKRGSRGPDVRWIQQHIGVKLVDGVFGRGTERAVKQFQSRRRLKADGIVGRQTWAAIHN | -0.999
53 | HMNMEDIADKIGRLYDNLPDDLKLMIKYRDIDDMTYDEIARKANLPIGTVRSRLHRARDILLREI | -0.647
54 | HMEELNFYPNPAYKYINLDYVGLKEIYTVLGKKLLETYDTRINISNLNSGIYLIKFKNQALRFVK | -0.0334
55 | HMRSASFDIMSQKQSDATLGYERVYDTETNEVYKAYNGFTDDYDGERYKSISDNMYTKGISGYIEK | 0.327
56 | HMLSSNEIKEIFALFDKSNRGQVATSELGTLVRALNLNPTETEITDMQSKVDPKGQGSFTLDVLEKVVQD | 0.206
57 | HMARGTRTRAKLLAAAEVVFARYGYTEASIERITEEAGVGQGTFYLYFASKLEIFEELVDDLNR | -2.87
58 | HMNKKAAYKDMAGYFAEMKSKDAADILSRLKDEDIIGIFNEMPRDMVAEMLQKMDRDKATTLTRKML | 0.385
59 | HMEKDKGTILKEARIKKGLTQEQLANNINYTRQYISKWENNISLPKDIQTLKKISNLLSIPLKELLPEDYL | -0.109
60 | HMANKLSEQIYGSILKDIVNGVYAPREFISEAQIAAKYGVSKAPVKEAMHILASEGFLLSYPKRGYMVN | -0.347
61 | HMFADLNPDENYGQVYIRTNTIDNLYQTLLDNKTRIHPNGLLELKPWGQKEFSILDPDKNLLTFGES | 0.0797
62 | HMLSAPMPGTVLEVHVKEGQRVREGQTLVVMEAMKMEHRVQAPRAGVVTKLHYSEGDRVDVGAILVEIG | 0.0919
63 | HMLEDDTVNTAEGIKIGDSFAAVTKAYGTDYVAAGNTYAYSKDKMTLTFVMNNDKVSTISYSLLTS | -0.129
64 | HMRSISVEMDGKEYLIPTVSENGKVLSDDDAVKQFKKTGKHLDVFDSPEDATAYARQLHEDQESFYA | 0.142
65 | HMADVLLKHGSSGDYVWDLQYRLKTLSLFDQEMTGYFGPHTRQAVVNFQRKYGLPADGVVGPATWRALRK | -2.27
66 | HMLPSWLPTDAWEAFLEARVAMKARPTERAKGLLLGELSKLVSQGQDARAVLEQSVQRGWRGLFPVK | -1.52
67 | HMDSDRAARLSSLTPQQFRVLRMVSEGQLNKQIAYQLNISEATVKSHVSAILQKLGVNSRTQAVILATRLD | -2.01
68 | HMSLGSSLFHARKKSGLTQEAVAEKLGVSRQTISKWETNETLPDIRQSKGLAMLYHMTLDELIE | -0.223
69 | HMVDERMVTYINSLDKGNTPFLNELEKEALANYVPIIRREMQSFLKVLLQIKAPLRILEVGTAVGFSTILM | 0.199
70 | HMDEYILTLDEVKELLKSKDYDDLKNVLKWSNKFQKDTIIQTAISEKVSDANVINIIKEITGQDITSLIV | 0.0322
71 | HMGNLIIFYDEGIGSGPLMKAVNDSGVSLVYEYKNLHGIAIRPSAKTNIQDAIAYFQKVNGVLSVEQ | -2.52
72 | HMGQPRPLTAEDFDFLSDDEIAEMRKALSNGEMLRLRELIAQIGEKRPFLAERLLVLAKQYNYEDLSRLLE | -0.374
73 | HMSQEILSNQSIKDMIELGFEEQTIIDKIQTSTSDFDTTIEELKALKQLGASPTILSAMIKSIKK | 0.285
74 | HMDGDFGMNLDWQPSEHFPTLARQAGIPADHITAEAIAEFRSYWIGQGKAMTQYQWDHKLLTNLKATKTR | -1.14
75 | HMLKREDEVIVVAGKDKGKRGTITQLVGDDRVIVAGVNMVKRHTKPNPNLGQPGGIVEREASLHISNV | 0.296
